From PMC9482650, “Quantitative fragmentomics allow affinity mapping of interactomes” (Nature Communications, 2022)

What was measured:
Test in all cases: holdup assay
Design in all cases: key: below the threshold = too weak to quantify, mostly under pKd 3.1 to 4
Settings in all cases: plain residues with an end cap or a label only (N-terminal biotin on a linker: ttds)
AHNAK2, Q8IVF2 = target: AHNAK2, Q8IVF2
CARD14, Q9BXL6 = target: CARD14, Q9BXL6
DLG5_2, Q8TDM6 = target: DLG5_2, Q8TDM6
DVL1, O14640 = target: T1, DVL1, O14640
T1 sequence (O14640 246-333, limits assumed, looked up): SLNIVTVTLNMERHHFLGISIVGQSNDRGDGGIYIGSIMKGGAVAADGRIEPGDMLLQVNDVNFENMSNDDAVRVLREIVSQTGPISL

GRIP2_2, Q9C0E4 = target: GRIP2_2, Q9C0E4
Sequence of GRIP2_2, Q9C0E4 (Q9C0E4 137-245): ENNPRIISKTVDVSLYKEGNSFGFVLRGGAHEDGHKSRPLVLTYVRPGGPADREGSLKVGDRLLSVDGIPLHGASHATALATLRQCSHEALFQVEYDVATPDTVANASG

Inadl_7, Q8NI35 = target: Inadl_7, Q8NI35
Sequence of Inadl_7, Q8NI35 (Q8NI35 1219-1332): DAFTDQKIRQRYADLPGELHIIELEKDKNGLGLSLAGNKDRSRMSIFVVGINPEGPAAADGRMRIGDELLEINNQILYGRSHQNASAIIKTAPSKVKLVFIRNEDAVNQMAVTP

MAGI1_5, Q96QZ7 = target: MAGI1_5, Q96QZ7
Sequence of MAGI1_5, Q96QZ7 (Q96QZ7 986-1098): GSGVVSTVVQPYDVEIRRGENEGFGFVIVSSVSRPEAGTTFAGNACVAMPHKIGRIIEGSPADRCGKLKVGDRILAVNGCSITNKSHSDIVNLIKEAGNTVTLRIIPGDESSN

MAGI2_1, Q86UL8 = target: T2, MAGI2_1, Q86UL8
T2 sequence (Q86UL8 12-111, limits assumed, looked up): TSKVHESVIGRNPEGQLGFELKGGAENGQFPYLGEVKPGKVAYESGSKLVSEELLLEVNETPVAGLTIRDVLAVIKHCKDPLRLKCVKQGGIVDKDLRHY

MAGI3_4, Q5TCQ9 = target: MAGI3_4, Q5TCQ9
Sequence of MAGI3_4, Q5TCQ9 (Q5TCQ9 716-815): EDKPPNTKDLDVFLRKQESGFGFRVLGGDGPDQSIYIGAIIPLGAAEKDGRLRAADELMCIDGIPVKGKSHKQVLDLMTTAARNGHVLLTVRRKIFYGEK

MAGI3_6, Q5TCQ9 = target: MAGI3_6, Q5TCQ9
Sequence of MAGI3_6, Q5TCQ9 (Q5TCQ9 1014-1103): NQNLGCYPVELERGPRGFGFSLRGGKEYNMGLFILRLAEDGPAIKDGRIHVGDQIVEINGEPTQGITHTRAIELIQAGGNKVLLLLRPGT

MAGIX, Q9H6Y5 = target: MAGIX, Q9H6Y5
Sequence of MAGIX, Q9H6Y5 (Q9H6Y5 118-211): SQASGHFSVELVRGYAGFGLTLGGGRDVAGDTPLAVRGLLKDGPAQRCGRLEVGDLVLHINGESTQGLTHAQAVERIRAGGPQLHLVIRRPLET

MAST3, O60307 = target: MAST3, O60307
Sequence of MAST3, O60307 (O60307 945-1048): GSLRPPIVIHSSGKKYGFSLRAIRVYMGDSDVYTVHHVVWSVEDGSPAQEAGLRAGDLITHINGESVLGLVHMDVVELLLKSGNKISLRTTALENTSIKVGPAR

MPDZ_3, O75970 = target: T3, MPDZ_3, O75970
T3 sequence (O75970 372-473, limits assumed, looked up): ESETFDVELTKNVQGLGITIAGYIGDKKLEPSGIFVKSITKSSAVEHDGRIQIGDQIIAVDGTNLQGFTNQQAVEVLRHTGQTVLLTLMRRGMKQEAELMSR

MPP5, Q8N3R9 = target: T4, MPP5, Q8N3R9
T4 sequence (Q8N3R9 251-346, limits assumed, looked up): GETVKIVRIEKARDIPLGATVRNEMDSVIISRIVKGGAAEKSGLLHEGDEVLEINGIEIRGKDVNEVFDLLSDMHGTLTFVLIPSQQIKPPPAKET

NHERF4_3, Q86UT5 = target: NHERF4_3, Q86UT5
Sequence of NHERF4_3, Q86UT5 (Q86UT5 325-412): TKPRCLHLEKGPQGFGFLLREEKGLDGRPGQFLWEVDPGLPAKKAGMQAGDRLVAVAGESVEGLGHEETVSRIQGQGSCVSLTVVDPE

PARD3B_3, Q8TEW8 = target: PARD3B_3, Q8TEW8
Sequence of PARD3B_3, Q8TEW8 (Q8TEW8 490-594): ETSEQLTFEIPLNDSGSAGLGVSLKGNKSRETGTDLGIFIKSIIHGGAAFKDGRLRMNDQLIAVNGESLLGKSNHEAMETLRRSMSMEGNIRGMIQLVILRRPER

PDZD2_1, O15018 = target: T5, PDZD2_1, O15018
T5 sequence (O15018 80-192, limits assumed, looked up): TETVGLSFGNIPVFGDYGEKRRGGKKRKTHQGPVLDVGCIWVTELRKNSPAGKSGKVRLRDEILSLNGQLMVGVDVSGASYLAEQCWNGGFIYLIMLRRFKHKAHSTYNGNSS

PDZD7_1, Q9H5P4 = target: T6, PDZD7_1, Q9H5P4
T6 sequence (Q9H5P4 81-178, limits assumed, looked up): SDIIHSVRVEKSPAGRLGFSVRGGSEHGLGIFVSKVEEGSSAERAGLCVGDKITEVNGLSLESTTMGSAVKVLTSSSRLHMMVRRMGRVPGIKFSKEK

PDZD7_2, Q9H5P4 = target: T7, PDZD7_2, Q9H5P4
T7 sequence (Q9H5P4 205-303, limits assumed, looked up): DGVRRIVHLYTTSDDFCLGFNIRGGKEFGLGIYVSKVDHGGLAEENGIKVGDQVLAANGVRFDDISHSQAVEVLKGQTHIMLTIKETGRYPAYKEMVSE

PTPN13_5, Q12923 = target: T8, PTPN13_5, Q12923
T8 sequence (Q12923 1877-1975, limits assumed, looked up): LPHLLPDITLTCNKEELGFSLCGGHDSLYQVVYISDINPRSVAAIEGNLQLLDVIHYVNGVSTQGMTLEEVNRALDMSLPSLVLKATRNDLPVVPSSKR

RGS12, O14924 = target: T9, RGS12, O14924
T9 sequence (O14924 17-108, limits assumed, looked up): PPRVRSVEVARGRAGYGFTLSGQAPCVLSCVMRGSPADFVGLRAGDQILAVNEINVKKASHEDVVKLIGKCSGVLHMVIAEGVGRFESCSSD

SDCBP_1, O00560 = target: SDCBP_1, O00560
Sequence of SDCBP_1, O00560 (O00560 111-198): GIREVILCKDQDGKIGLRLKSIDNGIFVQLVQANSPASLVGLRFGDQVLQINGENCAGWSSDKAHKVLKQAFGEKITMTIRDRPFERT

SHROOM2, Q13796 = target: T10, SHROOM2, Q13796
T10 sequence (Q13796 21-118, limits assumed, looked up): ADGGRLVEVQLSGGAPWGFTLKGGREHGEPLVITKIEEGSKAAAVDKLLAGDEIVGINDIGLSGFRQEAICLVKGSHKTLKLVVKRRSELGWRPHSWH

SNTB2, Q13425 = target: T11, SNTB2, Q13425
T11 sequence (Q13425 110-208, limits assumed, looked up): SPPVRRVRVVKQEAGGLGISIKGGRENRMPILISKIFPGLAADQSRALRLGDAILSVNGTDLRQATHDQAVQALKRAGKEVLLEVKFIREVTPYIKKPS

TJP3_2, O95049 = target: T12, TJP3_2, O95049
T12 sequence (O95049 190-282, limits assumed, looked up): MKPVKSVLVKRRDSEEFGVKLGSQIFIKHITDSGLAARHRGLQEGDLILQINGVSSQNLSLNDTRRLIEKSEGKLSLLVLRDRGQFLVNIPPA

Measured: pKd

Sequence of AHNAK2, Q8IVF2 (Q8IVF2 108-193): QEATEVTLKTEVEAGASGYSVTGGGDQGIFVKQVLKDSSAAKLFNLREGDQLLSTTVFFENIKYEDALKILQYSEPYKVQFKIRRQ
Sequence of CARD14, Q9BXL6 (Q9BXL6 558-663): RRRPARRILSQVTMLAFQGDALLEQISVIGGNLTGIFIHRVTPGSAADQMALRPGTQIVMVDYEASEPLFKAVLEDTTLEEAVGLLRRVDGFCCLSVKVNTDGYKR
Sequence of DLG5_2, Q8TDM6 (Q8TDM6 714-800): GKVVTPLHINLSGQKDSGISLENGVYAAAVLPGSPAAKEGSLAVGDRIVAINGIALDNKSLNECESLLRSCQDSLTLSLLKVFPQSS

QRQARSETLV [HPV59-E6, Q81964]
4.28: NHERF4_3, Q86UT5
5.41: MAGI1_5, Q96QZ7
4.52: PTPN13_5, Q12923
below the threshold: all other assays above

SGSRPSATVV [HPV73-E6, Q82005]
4.36: DVL1, O14640
4.11: MAGI1_5, Q96QZ7
4.13: SNTB2, Q13425
4.12: CARD14, Q9BXL6
not listed: DLG5_2, Q8TDM6
below the threshold: all other assays above

RHTTSTETAV [HPV30-E6, P36809]
5.35: MAGIX, Q9H6Y5
4.68: SNTB2, Q13425
5.02: MAGI1_5, Q96QZ7
below the threshold: all other assays above

SKPTRRETEV [HPV35-E6, P27228]
4.72: DLG5_2, Q8TDM6
3.78: NHERF4_3, Q86UT5
3.76: MAGI3_4, Q5TCQ9
3.56: MAGIX, Q9H6Y5
4.43: MAGI1_5, Q96QZ7
3.81: MAGI3_6, Q5TCQ9
3.73: PARD3B_3, Q8TEW8
not listed: AHNAK2, Q8IVF2 | CARD14, Q9BXL6 | GRIP2_2, Q9C0E4 | MAGI2_1, Q86UL8 | SNTB2, Q13425 | TJP3_2, O95049
below the threshold: all other assays above

RLQRRRETQV [HPV18-E6, P06463]
4.48: GRIP2_2, Q9C0E4
4.58: SNTB2, Q13425
4.35: RGS12, O14924
not listed: AHNAK2, Q8IVF2
below the threshold: all other assays above

SSLQSLETSV [ATP2B4, P23634]
4.66: MAGI1_5, Q96QZ7
4.87: SNTB2, Q13425
4.34: DLG5_2, Q8TDM6
below the threshold: all other assays above
